Measured values published in publication PMC3683130.

Molecular target: FLAG-tagged PUD-1 (C. elegans)
Experiment: affinity purification with mass spectrometry; anti-FLAG IP (M2 beads) from worms with single-copy FLAG::PUD-1, N2 as control; eluted with 3xFLAG peptide; silver-stained bands cut and identified by LC-MS/MS

FLAG-tagged PUD-1 (C. elegans), sequence (main, as listed by the source): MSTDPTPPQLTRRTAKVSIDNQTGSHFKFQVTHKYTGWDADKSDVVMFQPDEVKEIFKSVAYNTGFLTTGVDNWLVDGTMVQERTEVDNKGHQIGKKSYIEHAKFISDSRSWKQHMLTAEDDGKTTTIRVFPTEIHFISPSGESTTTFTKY

Endogenous PUD-2 (natural protein)
stoichiometry N: 1
